Target: Recombinant human TNFα (R&D Systems) (human) (UniProt P01375)
Sequence (P01375 77-233 limits assumed): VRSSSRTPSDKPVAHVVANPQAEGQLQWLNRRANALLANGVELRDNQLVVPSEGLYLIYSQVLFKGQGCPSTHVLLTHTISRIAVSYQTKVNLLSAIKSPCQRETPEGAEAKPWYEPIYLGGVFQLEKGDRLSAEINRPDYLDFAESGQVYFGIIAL

IC50, TNFα-induced Caspase 3 activity in U937 cells: 144 pM
Substance: etanercept (Fc fusion)
